These results are taken from the nanobody polyreactivity screen of Harvey et al. (2022).

The series can be described thus: yeast display, Sf9 membrane polyspecificity reagent, FACS + sequencing; frameworks hold sequencing errors. Put shortly:
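Genes from sorted yeast were amplified by colony PCR, read by MiSeq 2 × 250 sequencing and filtered on CDR length. These cells carried a synthetic nanobody library in Saccharomyces cerevisiae BJ5465 and were sorted by FACS into low and high (top ~1%) gates on anti-HA and streptavidin fluorescence. Polyreactivity is labelled according to the gate of origin.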
“QVQLVESGGGLVQAGGSLRLSCAASGFTFYGNAMGWYSQAPGKERELVAAISSGGSTNYADSVKGRFTISRDNAQNTVSLQMNSLKPEDTAVYYCAASSPRQVSFPYASIGFDYWGQGTQVTVSS”: the “polyreactivity (PSR sort gate)” value was “low polyreactivity”.
On to “QVQLVESGGGLVQAGGSLRLSCAASGFTFYGYAMAWYRQAPGTERELVAAITRRGGNTYYADSVKGRFTISRDNAKNTVYLQMNSLKPEDTAVYYCNAVLRYGHGPYQKGDYWGQGSQVTVSS”, for which the “polyreactivity (PSR sort gate)” value is “high polyreactivity”.
As for “QVQLVESGGGLVQAGGSLRLSCAASGFTFYGYAMGWYRQAPGKERELVAAITSGGITNYADSVKGRFTISRDNAKNTVYLQMNSLKPEDTAVYYCNVKRRVSGYYGYKYYYWGQGTQVTVSS”, the entry is “high polyreactivity”.
The result for “QVQLVESGGGLVQAGGSLRLSCAASGFTFYGYAMVWYRQAPGKERELLAAITFRGDRTYYADSVKGRFTISRDIAKNTVYLQMNSLKPEDTAVYYCAAERPSGWYSYLSLYIVRRGYWGQGTQVTVSS” reads “low polyreactivity”; that for “QVQLVESGGGLVQAGGSLRLSCAASGFTFYHNALGWYRQAPGKERELVATITARGGRTYYADSVKGRFTISRDNAKNTVYLQMNSLKPEDTAVYYCNVKASRGYTYEYDYWGQGTQVTVSS”, “high polyreactivity”.
As for “QVQLVESGGGLVQAGGSLRLSCAASGFTFYHYAMGWYRPAPGKERELVAAISKSGGRTYYADSVKGRFTISRDNAMYTVYLQMNSLKPEDTAVYYFNAAYRTTSYENDYWGQGTQVTVSS”, the entry is “low polyreactivity”; as for “QVQLVESGGGLVQAGGSLRLSCAASGFTFYHYAMGWYRQAPGKEREFVAAISASGGSTYYADSVKGRFTISRDNAKNTVYLQMNSLKPEDTAVYYCNARYYYFSVRYKYDFNYWGQVTQVTVSS”, “high polyreactivity”; as for “QVQLVESGGGLVQAGGSLRLSCAASGFTFYHYAMGWYRQAPGKERELGAAISRSGGSTYYADSVKGRFTISRDNAKNTVYLQMNSLKPEDTAVYYCAKVLRAKNSFDYWGQGTQVTVSS”, “high polyreactivity”.
Turning to “QVQLVESGGGLVQAGGSLRLSCAASGFTFYIYAMGWYRQAPGKERELVAAITGSGGRTYYADSVKGRFTISRDTAKNTVYLQMNSLKPEDTAVYYCAADKYRRGLAGAVARVNYWGQGTQVTVSS”, the “polyreactivity (PSR sort gate)” value is recorded as “high polyreactivity”.
As for “QVQLVESGGGLVQAGGSLRLSCAASGFTFYIYAMGWYRQAPGKERELVAGIDYSGGSTYYADSVKGRFTISRDNAKNTVYLQMNSLKPEDTAVYYCARYGPYQSSYHYDYWGQGTQVTVSS”, the entry is “high polyreactivity”.
As for “QVQLVESGGGLVQAGGSLRLSCAASGFTFYIYAMGWYRQAPGKERELVARISSGGRTYYADSVKGRFTISRDNAKNTVYLQMNRLKPEDTAVYDCHFWYGSWGQGTQVTVSS”, the entry is “low polyreactivity”; as for “QVQLVESGGGLVQAGGSLRLSCAASGFTFYIYAMGWYRQAPGKERELVARISSGGRTYYADSVKGRFTISRDNAKNTVYLQMNSLKPEDTAVFDCHFWYGSWGQGTQVTVSS”, “low polyreactivity”; as for “QVQLVESGGGLVQAGGSLRLSCAASGFTFYKNAMGWYRQAPGKERELVAAITSSGGSTYYADSVKGRFTISRDNAKNTVYLQMNSLKPEDTAVYYCAARASRPRFGYWGQGTQVTVSS”, “high polyreactivity”.
Take “QVQLVESGGGLVQAGGSLRLSCAASGFTFYKNTMGWYRQAPGKERELVAAISSSGSSTYYADSVKGRFTISRDNAKNTVYLQMNSLKPEDTAVYYCAAVYRSWTSYNGRNYWGQGTQVTVSS”: the “polyreactivity (PSR sort gate)” value is “high polyreactivity”.
The result for “QVQLVESGGGLVQAGGSLRLSCAASGFTFYKYAMGWYRQAPGKERELVAAINWSGGSTYYADSVKGRFTISRDNAKNTVYLQMNSLKPEDTAVYYCAAERGTTYAYDYWGQGTQVTVSS” reads “high polyreactivity”.
The result for “QVQLVESGGGLVQAGGSLRLSCAASGFTFYKYAMGWYRQAPGKERELVATISWSGARTYYADSVKGRFTISRDNAKNTVYLQMNSLKPEDTAVYYCNARRAYRWKPYTGSAGMDYWGQGTQVTVSS” reads “high polyreactivity”.
Turning to “QVQLVESGGGLVQAGGSLRLSCAASGFTFYKYVMGWYRQAPGKERELVAAITQGGGSTYYADSVKGRFTISRDNAKNTVYLQMNSLKPEDTAVYYCNARNGYGIGYWGQGTQVTVSS”, the “polyreactivity (PSR sort gate)” value is reported as “high polyreactivity”.
The result for “QVQLVESGGGLVQAGGSLRLSCAASGFTFYLYAMGWYRQAPGKERELVAAINSGSSTYYADSVKGRFTISRDNAKNTVYLQMNSLKPEDTAVYYCATDTDRTMDYWGQGTQVTVSS” reads “low polyreactivity”; that for “QVQLVESGGGLVQAGGSLRLSCAASGFTFYLYAMGWYRQAPGKERELVAAINSGSSTYYADSVKGRFTISRDNAKNTVYLQMNSLNPEDTAVYYCATDTDRTMDYWGQGTQVTVSS”, “low polyreactivity”; that for “QVQLVESGGGLVQAGGSLRLSCAASGFTFYLYAMGWYRQAPGKERELVAAITGRGTRTYYADSVKGRFTISRDNAKNTVYLQMNSLKPEDTAVYYCATGGANVDGDAYDYWGQGTQVTVSS”, “high polyreactivity”.
As for “QVQLVESGGGLVQAGGSLRLSCAASGFTFYLYAMGWYRQAPGKERELVAASTWSGGRTYYADSVKGRFTISRDNAKNTVYLQMNSLKPEDTADYYCAVDGFRGRSHGANDFWGQGTQVTVSS”, the entry is “high polyreactivity”; as for “QVQLVESGGGLVQAGGSLRLSCAASGFTFYLYTMGWYLQAPGKERELVATITSDGGTNYADSVKGRFTISRDNAKNTVYLQMNSLKPEDTAVYYCNAASRRGSRKQAKYDYWGQGTQVTVSS”, “low polyreactivity”.
“QVQLVESGGGLVQAGGSLRLSCAASGFTFYPYAMGWYRQAPGKERELVARITWSGGSTSYADSVKGRFTISRDNAKNTVYLQMNSLKPEDTAVYYCSKAYHHSEFDYWGLGTQVTVSS”: the “polyreactivity (PSR sort gate)” value is on record as “high polyreactivity”.
With “QVQLVESGGGLVQAGGSLRLSCAASGFTFYQYAMGSYRQAPGKESEFVATISSGGSTYYADSVKGRFTISRDNAKNTFYLQMNSLIPEDTAVYYCAKVDFIVGYYYWGQGTQVTVSS”, the “polyreactivity (PSR sort gate)” value was “low polyreactivity”.
Turning to “QVQLVESGGGLVQAGGSLRLSCAASGFTFYRNAMGWYRPAPGKERELVAAISGRGGGTYYADSVKGRFTISRDNAKNTVYLQMNSLKPEDTAVYYCNARLSWSAFGYWGQGTQVTVSS”, the “polyreactivity (PSR sort gate)” value was “high polyreactivity”.
“QVQLVESGGGLVQAGGSLRLSCAASGFTFYRNAMGWYRQAPGKERELVAAITRAGSTYYADSVKGRFTISRDNAKNTVYLQMNSLKPEDTAVYYCFDMSNRYAVRYDYWGQGTQVSVSS”: the “polyreactivity (PSR sort gate)” value is reported as “high polyreactivity”.
As for “QVQLVESGGGLVQAGGSLRLSCAASGFTFYRNARGWYRQAPGKERELVAAISISGGSTYYADSVKGRFTISRDNAKNTVYLQMNSLKPEDTAVYYCAAYYYRDRYSRVKVTYWGQGTQVTVSS”, the entry is “high polyreactivity”.
The result for “QVQLVESGGGLVQAGGSLRLSCAASGFTFYRNVMGWYRQAPGKERELVAAISSRGGSTYYADSVKGRFTISRDNAKNTVYLQMNSLKPEDTAVYYCNKARYTVISYDEYDYWGQGTQVTVSS” reads “high polyreactivity”.
As for “QVQLVESGGGLVQAGGSLRLSCAASGFTFYRYAMGCYRQAPGKERELVAAITSSGGNTYYADSVKGRFTISRDNGKNTVYLQMNSLKPEDTAVYYCAKYTRIRFEYEYWGLGTQVTVSS”, the entry is “high polyreactivity”.
“QVQLVESGGGLVQAGGSLRLSCAASGFTFYRYAMGWYRHAPGKERELVAAITRSGSRTYYADSVKGRFTISRDNAKNTVYLQMNSLKPEDTAVYYFNTDGGDHPTARYGYWGQVTQVTVSS”: the “polyreactivity (PSR sort gate)” value is “high polyreactivity”.
